Earlier results in article PMC8330535.

Target: ARNT PAS-B (Homo sapiens) (UniProt P27540)
Conditions: cited from earlier work

ARNT PAS-B (Homo sapiens), sequence (P27540 356-470): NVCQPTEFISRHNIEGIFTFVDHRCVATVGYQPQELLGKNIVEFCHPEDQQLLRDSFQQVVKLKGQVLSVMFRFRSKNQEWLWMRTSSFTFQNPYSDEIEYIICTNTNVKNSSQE
HIF-1α PAS-B, sequence (Q16665 238-349): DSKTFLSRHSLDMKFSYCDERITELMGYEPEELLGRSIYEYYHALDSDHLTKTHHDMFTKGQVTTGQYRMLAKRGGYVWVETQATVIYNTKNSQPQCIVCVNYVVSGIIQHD

For HIF-1α PAS-B (from UniProt Q16665), the Kd is listed as 125 nM.
